Measurements published in IntAct's records for PubMed 21880730.

B1: Nectin-3 (Mus musculus), Q9JLB9 (parent)
chain: MARTPGPAPLCPGGGKAQLSSAFPPAAGLLLPAPTPPPLLLLLIPLLLFSRLCGALAGSIIVEPHVTAVWGKNVSLKCLIEVNETITQISWEKIHGKSTQTVAVHHPQYGFSVQGDYQGRVLFKNYSLNDATITLHNIGFSDSGKYICKAVTFPLGNAQSSTTVTVLVEPTVSLIKGPDSLIDGGNETVAAVCVAATGKPVAQIDWEGDLGEMESSTTSFPNETATIVSQYKLFPTRFARGRRITCVVKHPALEKDIRYSFILDIQYAPEVSVTGYDGNWFVGRKGVNLKCNADANPPPFKSVWSRLDGQWPDGLLASDNTLHFVHPLTVNYSGVYVCKVSNSLGQRSDQKVIYISDPPTTTTLQPTVQWHSSPADVQDIATEHKKLPFPLSTLATLKDDTIGTIIASVVGGALFLVLVSILAGVFCYRRRRTFRGDYFAKNYIPPSDMQKESQIDVLHQDELDSYPDSVKKENKNPVNNLIRKDYLEEPEKTQWNNVENLTRFERPMDYYEDLKMGMKFVSDERYNESEDGLVSHVDGSVISRREWYV

Variants of: B1
Settings: with afad_rat Afdn

Row | Variant | effect of a mutation on the interaction
1 | MARTPGPAPLCPGGGKAQLSSAFPPAAGLLLPAPTPPPLLLLLIPLLLFSRLCGALAGSIIVEPHVTAVWGKNVSLKCLIEVNETITQISWEKIHGKSTQTVAVHHPQYGFSVQGDYQGRVLFKNYSLNDATITLHNIGFSDSGKYICKAVTLPLGNAQSSTTVTVLVEPTVSLIKGPDSLIDGGNETVAAVCVAATGKPVAQIDWEGDLGEMESSTTSFPNETATIVSQYKLFPTRFARGRRITCVVKHPALEKDIRYSFILDIQYAPEVSVTGYDGNWFVGRKGVNLKCNADANPPPFKSVWSRLDGQWPDGLLASDNTLHFVHPLTVNYSGVYVCKVSNSLGQRSDQKVIYISDPPTTTTLQPTVQWHSSPADVQDIATEHKKLPFPLSTLATLKDDTIGTIIASVVGGALFLVLVSILAGVFCYRRRRTFRGDYFAKNYIPPSDMQKESQIDVLHQDELDSYPDSVKKENKNPVNNLIRKDYLEEPEKTQWNNVENLTRFERPMDYYEDLKMGMKFVSDERYNESEDGLVSHVDGSVISRREWYV [F153L] | decreasing interaction
